Measurements taken from article PMC8919193.

How the values were obtained:
[1] = molecular target: unmodified and H2BK120ub nucleosomes; experiment: FRET or BRET
[2] = molecular target: Alexa Fluor 488-labeled H2BK120ub nucleosome, H2A(L65C), H3K79Nle (UniProt P0CG47); experiment: other fluorescence titration
[3] = molecular target: unmodified nucleosome, H3K79Nle, Alexa Fluor 488 on H2A(L65C) (human) (UniProt P62807); experiment: FRET or BRET

Atto647N-labeled DOT1Lcat(C45A, C75A, C179A, N324C) (from UniProt Q8TEK3 1-416) (domain or fragment)
Kd [1]: 32 to 36 nM

DOT1Lcat (human DOT1L residues 1–416) (from UniProt Q8TEK3 1-416) (domain or fragment)
Kd [2]: 120 nM

DOT1Lcat(F326A, C45A, C75A, C179A, N324C), Atto647N-labeled (from UniProt Q8TEK3 1-416) (domain or fragment)
Kd [3]: 38 nM
